Measurements reported in US20240010722A1 (published 2024).

Tests used:
[1] = target: T1, human MAdCAM (human, UniProt Q13477 19-317, limits assumed); test: BLI (Octet)
T1 construct: also called huMAdCAM; human MAdCAM-1
T1 sequence (looked up): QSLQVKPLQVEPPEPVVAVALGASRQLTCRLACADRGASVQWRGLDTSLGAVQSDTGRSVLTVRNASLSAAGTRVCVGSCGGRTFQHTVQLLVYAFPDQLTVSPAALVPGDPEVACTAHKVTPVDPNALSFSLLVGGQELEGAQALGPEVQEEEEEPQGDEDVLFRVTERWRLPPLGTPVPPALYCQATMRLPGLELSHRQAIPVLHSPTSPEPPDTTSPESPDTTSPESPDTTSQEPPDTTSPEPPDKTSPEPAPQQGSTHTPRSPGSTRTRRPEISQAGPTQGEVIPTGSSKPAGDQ

[2] = target: T2, cyno MAdCAM (cynomolgus); test: BLI (Octet)
T2 construct: also called cynomolgus MAdCAM

[3] = target: T3, mouse MAdCAM (mouse, UniProt Q61826 22-365, limits assumed); test: BLI (Octet)
T3 construct: also called mouse MAdCAM-1; muMAdCAM
T3 sequence (looked up): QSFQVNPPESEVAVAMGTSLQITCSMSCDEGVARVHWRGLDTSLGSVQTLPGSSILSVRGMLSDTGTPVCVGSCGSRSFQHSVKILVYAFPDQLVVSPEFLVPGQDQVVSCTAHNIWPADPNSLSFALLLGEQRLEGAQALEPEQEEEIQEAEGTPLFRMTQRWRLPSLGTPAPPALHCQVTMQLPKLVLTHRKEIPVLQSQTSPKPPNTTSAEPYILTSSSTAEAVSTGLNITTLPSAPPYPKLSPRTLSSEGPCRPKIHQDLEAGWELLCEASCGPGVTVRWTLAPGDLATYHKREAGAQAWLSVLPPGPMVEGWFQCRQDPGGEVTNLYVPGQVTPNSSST

[4] = target: T1, human MAdCAM; test: BLI (Octet), binder on AHC tips
In short: (§1)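 Binding was measured on an Octet96 RED instrument using anti-human IgG Fc biosensors, which were first equilibrated in assay buffer for 20 minutes. The tips were then loaded for 240 s with test article at 10 μg/mL in assay buffer, exposed to MAdCAM-1 for 120 s of association, and returned to assay buffer for 120 s of dissociation, with MAdCAM-1 run as a seven-point serial dilution from 200 nM to 3.13 nM. Kinetic rates and the dissociation constant were derived by a global one-to-one fit in the Octet data analysis software.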

[5] = target: T3, mouse MAdCAM; test: BLI (Octet), binder on AHC tips
In short: as §1

B1: PMAB15 (bispecific antibody, human IgG1, kappa)
heavy: EVQLLESGGGLVQPGGSLRLSCAASGFTFSSYDMSWVRQAPGKGLEWVSGITISGGSTYYADSVKGRFTISRDNSKNTLYLQMNSLRAEDTAVYYCARGRGGSGWLDYWGQGTLVTVSSASTKGPSVFPLAPSSKSTSGGTAALGCLVKDYFPEPVTVSWNSGALTSGVHTFPAVLQSSGLYSLSSVVTVPSSSLGTQTYICNVNHKPSNTKVDKKVEPKSCDKTHTCPPCPAPEAAGAPSVFLFPPKPKDTLMISRTPEVTCVVVDVSHEDPEVKFNWYVDGVEVHNAKTKPREEQYNSTYRVVSVLTVLHQDWLNGKEYKCKVSNKALPAPIEKTISKAKGQPREPQVYTLPPSREEMTKNQVSLTCLVKGFYPSDIAVEWESNGQPENNYKTTPPVLDSDGSFFLYSKLTVDKSRWQQGNVFSCSVMHEALHNHYTQKSLSLSPGGGGGSGGGGSGGGGSEVQLLESGGGLVQPGGSLRLSCAASGFTFSSYWMHWVRQAPGKGLEWVSAISGSGGSTYYADSVKGRFTISRDNSKNTLYLQMNSLRAEDTAVYYCARDRPYYYDMDVWGKGTTVTVSSGGGGSGGGGSGGGGSGGGGSDIQMTQSPSSLSASVGDRVTITCRASQSISSSLAWYQQKPGKAPKLLIYAASSLQSGVPSRFSGSGSGTDFTLTISSLQPEDFATYYCQQYKSYPVTFGQGTKVEIK
light: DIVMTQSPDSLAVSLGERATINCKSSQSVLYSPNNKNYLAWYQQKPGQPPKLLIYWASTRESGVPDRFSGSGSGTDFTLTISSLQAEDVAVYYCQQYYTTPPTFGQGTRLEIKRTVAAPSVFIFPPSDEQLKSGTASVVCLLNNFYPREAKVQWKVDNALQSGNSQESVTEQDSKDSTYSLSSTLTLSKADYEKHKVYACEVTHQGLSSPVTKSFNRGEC
Question: Which Kd [1] does the source give for B1 here?
Answer: 73.1 nM

Question: What about the koff [1] of the same binder?
Answer: 0.0839 s⁻¹

Question: What about the kon [1] of the same binder?
Answer: 1.15e+06 M⁻¹ s⁻¹

Question: What about the response [1] of the same binder?
Answer: 0.0655

B2: PMAB17 (bispecific antibody, human IgG1, kappa)
heavy: EVQLLESGGGLVQPGGSLRLSCAASGFTFSSYDMSWVRQAPGKGLEWVSGITISGGSTYYADSVKGRFTISRDNSKNTLYLQMNSLRAEDTAVYYCARGRGGSGWLDYWGQGTDVTVSSASTKGPSVFPLAPSSKSTSGGTAALGCLVKDYFPEPVTVSWNSGALTSGVHTFPAVLQSSGLYSLSSVVTVPSSSLGTQTYICNVNHKPSNTKVDKKVEPKSCDKTHTCPPCPAPEAAGAPSVFLFPPKPKDTLMISRTPEVTCVVVDVSHEDPEVKFNWYVDGVEVHNAKTKPREEQYNSTYRVVSVLTVLHQDWLNGKEYKCKVSNKALPAPIEKTISKAKGQPREPQVYTLPPSREEMTKNQVSLTCLVKGFYPSDIAVEWESNGQPENNYKTTPPVLDSDGSFFLYSKLTVDKSRWQQGNVFSCSVMHEALHNHYTQKSLSLSPGGGGGSGGGGSGGGGSEVQLLESGGGLVQPGGSLRLSCAASGFTFSSYWMHWVRQAPGKGLEWVSAISGSGGSTYYADSVKGRFTISRDNSKNTLYLQMNSLRAEDTAVYYCARDRPYGYYMDVWGKGTTVTVSSGGGGSGGGGSGGGGSGGGGSDIQMTQSPSSLSASVGDRVTITCRASQSISSSLAWYQQKPGKAPKLLIYAASSLQSGVPSRFSGSGSGTDFTLTISSLQPEDFATYYCQQYKSYPVTFGQGTKVEIK
light: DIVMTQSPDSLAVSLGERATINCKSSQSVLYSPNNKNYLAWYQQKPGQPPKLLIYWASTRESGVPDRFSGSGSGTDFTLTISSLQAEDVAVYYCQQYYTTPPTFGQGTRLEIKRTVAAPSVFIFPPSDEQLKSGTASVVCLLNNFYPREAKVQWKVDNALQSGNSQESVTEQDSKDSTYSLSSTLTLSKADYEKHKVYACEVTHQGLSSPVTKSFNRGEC
Question: With B2 as the binder, how does the Kd [1] read?
Answer: 17.1 nM

Question: And the koff [1]?
Answer: 0.0636 s⁻¹

Question: What about the kon [1] of the same binder?
Answer: 3.73e+06 M⁻¹ s⁻¹

Question: What about the response [1] of the same binder?
Answer: 0.0416

B3: PMAB53 (bispecific antibody, human IgG1, kappa)
heavy: EVQLLESGGGLVQPGGSLRLSCAASGFTFSSYDMSWVRQAPGKGLEWVSGITISGGSTYYADSVKGRFTISRDNSKNTLYLQMNSLRAEDTAVYYCARGRGGSGWLDYWGQGTTVTVSSASTKGPSVFPLAPSSKSTSGGTAALGCLVKDYFPEPVTVSWNSGALTSGVHTFPAVLQSSGLYSLSSVVTVPSSSLGTQTYICNVNHKPSNTKVDKKVEPKSCDKTHTCPPCPAPEAAGAPSVFLFPPKPKDTLMISRTPEVTCVVVDVSHEDPEVKFNWYVDGVEVHNAKTKPREEQYNSTYRVVSVLTVLHQDWLNGKEYKCKVSNKALPAPIEKTISKAKGQPREPQVYTLPPSREEMTKNQVSLTCLVKGFYPSDIAVEWESNGQPENNYKTTPPVLDSDGSFFLYSKLTVDKSRWQQGNVFSCSVMHEALHNHYTQKSLSLSPGGGGGSGGGGSGGGGSEVQLLESGGGLVQPGGSLRLSCAASGFTFSSYWMHWVRQAPGKGLEWVSYISGSGGYTNYADSVKGRFTISRDNSKNTLYLQMNSLRAEDTAVYYCARDRPYYYDIDVWGKGTTVTVSSGGGGSGGGGSGGGGSGGGGSDIQMTQSPSSLSASVGDRVTITCRASQSISSSLAWYQQKPGKAPKLLIYAASSLQSGVPSRFSGSGSGTDFTLTISSLQPEDFATYYCQQYKSYPVTFGQGTKVEIK
light: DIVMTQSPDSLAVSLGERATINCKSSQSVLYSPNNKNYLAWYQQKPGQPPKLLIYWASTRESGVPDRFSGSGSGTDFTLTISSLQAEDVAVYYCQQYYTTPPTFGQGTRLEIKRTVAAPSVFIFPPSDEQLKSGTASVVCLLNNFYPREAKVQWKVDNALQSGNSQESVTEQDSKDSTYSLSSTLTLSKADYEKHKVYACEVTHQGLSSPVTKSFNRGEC
Question: What does the source list for B3?
Answer: Kd [2]: 379 nM; koff [2]: 0.0217 s⁻¹; kon [2]: 57100 M⁻¹ s⁻¹; Kd [1]: 49.7 nM; koff [1]: 0.000716 s⁻¹; kon [1]: 14400 M⁻¹ s⁻¹; Kd [3]: 1740 nM; koff [3]: 0.217 s⁻¹; kon [3]: 125000 M⁻¹ s⁻¹

B4: PMAB16 (bispecific antibody, human IgG1, kappa)
heavy: EVQLLESGGGLVQPGGSLRLSCAASGFTFSSYDMSWVRQAPGKGLEWVSGITISGGSTYYADSVKGRFTISRDNSKNTLYLQMNSLRAEDTAVYYCARGRGGSGWLDYWGQGTLVTVSSASTKGPSVFPLAPSSKSTSGGTAALGCLVKDYFPEPVTVSWNSGALTSGVHTFPAVLQSSGLYSLSSVVTVPSSSLGTQTYICNVNHKPSNTKVDKKVEPKSCDKTHTCPPCPAPEAAGAPSVFLFPPKPKDTLMISRTPEVTCVVVDVSHEDPEVKFNWYVDGVEVHNAKTKPREEQYNSTYRVVSVLTVLHQDWLNGKEYKCKVSNKALPAPIEKTISKAKGQPREPQVYTLPPSREEMTKNQVSLTCLVKGFYPSDIAVEWESNGQPENNYKTTPPVLDSDGSFFLYSKLTVDKSRWQQGNVFSCSVMHEALHNHYTQKSLSLSPGGGGGSGGGGSGGGGSEVQLLESGGGLVQPGGSLRLSCAASGFTFSSYWMHWVRQAPGKGLEWVSYISGSGGYTNYADSVKGRFTISRDNSKNTLYLQMNSLRAEDTAVYYCARDRPYYYDMDVWGKGTTVTVSSGGGGSGGGGSGGGGSGGGGSDIQMTQSPSSLSASVGDRVTITCRASQSISSSLAWYQQKPGKAPKLLIYAASSLQSGVPSRFSGSGSGTDFTLTISSLQPEDFATYYCQQYKSYPVTFGQGTKVEIK
light: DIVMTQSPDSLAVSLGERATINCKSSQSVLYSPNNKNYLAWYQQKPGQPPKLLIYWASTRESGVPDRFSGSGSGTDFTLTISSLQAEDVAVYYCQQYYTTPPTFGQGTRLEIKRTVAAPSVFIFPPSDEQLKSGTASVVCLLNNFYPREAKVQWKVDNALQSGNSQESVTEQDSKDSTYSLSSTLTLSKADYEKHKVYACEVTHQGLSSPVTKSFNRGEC
Question: B4 was tested. Which Kd [1] did it give?
Answer: 134 nM

Question: What about the koff [1] of the same binder?
Answer: 0.0631 s⁻¹

Question: What about the kon [1] of the same binder?
Answer: 472000 M⁻¹ s⁻¹

Question: What about the response [1] of the same binder?
Answer: 0.186

Question: What about the Kd [3] of the same binder?
Answer: 334 nM

Question: What about the koff [3] of the same binder?
Answer: 0.0828 s⁻¹

Question: And the kon [3]?
Answer: 248000 M⁻¹ s⁻¹

Question: And the response [3]?
Answer: 0.0407

B5: PMAB37 (bispecific antibody, human IgG1, kappa)
heavy: EVQLLESGGGLVQPGGSLRLSCAASGFTFSNSDMSWVRQAPGKGLEWVSGITISGGSTYYADSVKGRFTISRDNSKNTLYLQMNSLRAEDTAVYYCARGRGGSGWLDYWGQGTLVTVSSASTKGPSVFPLAPSSKSTSGGTAALGCLVKDYFPEPVTVSWNSGALTSGVHTFPAVLQSSGLYSLSSVVTVPSSSLGTQTYICNVNHKPSNTKVDKKVEPKSCDKTHTCPPCPAPEAAGAPSVFLFPPKPKDTLMISRTPEVTCVVVDVSHEDPEVKFNWYVDGVEVHNAKTKPREEQYNSTYRVVSVLTVLHQDWLNGKEYKCKVSNKALPAPIEKTISKAKGQPREPQVYTLPPSREEMTKNQVSLTCLVKGFYPSDIAVEWESNGQPENNYKTTPPVLDSDGSFFLYSKLTVDKSRWQQGNVFSCSVMHEALHNHYTQKSLSLSPGGGGGSGGGGSGGGGSEVQLLESGGGLVQPGGSLRLSCAASGFTFSDFWMHWVRQAPGKGLEWISYISGDSGYTNYADSVKGRFTISRDNSKNTLYLQMNSLRAEDTAVYYCARDRPYYYYMDVWGKGTTVTVSSGGGGSGGGGSGGGGSGGGGSDIQMTQSPSSLSASVGDRVTITCRASQSVSSSLAWYQQKPGKAPKLLIYAASSLQSGVPSRFSGSGSGTDFTLTISSLQPEDFATYYCQQYKSYPVTFGQGTKVEIK
light: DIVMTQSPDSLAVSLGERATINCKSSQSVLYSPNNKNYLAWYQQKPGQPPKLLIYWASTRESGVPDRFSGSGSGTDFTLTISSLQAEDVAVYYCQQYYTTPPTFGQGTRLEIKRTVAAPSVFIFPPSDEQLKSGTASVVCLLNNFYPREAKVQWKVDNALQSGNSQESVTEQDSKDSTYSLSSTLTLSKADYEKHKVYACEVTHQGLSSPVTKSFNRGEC
Question: How did the Kd [4] turn out when B5 was run?
Answer: 285 nM

Question: And the koff [4]?
Answer: 0.0838 s⁻¹

Question: And the kon [4]?
Answer: 294000 M⁻¹ s⁻¹

Question: And the Kd [5]?
Answer: 176 nM

Question: And the koff [5]?
Answer: 0.0178 s⁻¹

Question: And the kon [5]?
Answer: 101000 M⁻¹ s⁻¹

Question: What about the response [5] of the same binder?
Answer: 0.152

B6: PMAB42 (bispecific antibody, human IgG1, kappa)
heavy: EVQLLESGGGLVQPGGSLRLSCAASGFTFSNSDMSWVRQAPGKGLEWVSGITISGGSTYYADSVKGRFTISRDNSKNTLYLQMNSLRAEDTAVYYCARGRGGSGWLDYWGQGTLVTVSSASTKGPSVFPLAPSSKSTSGGTAALGCLVKDYFPEPVTVSWNSGALTSGVHTFPAVLQSSGLYSLSSVVTVPSSSLGTQTYICNVNHKPSNTKVDKKVEPKSCDKTHTCPPCPAPEAAGAPSVFLFPPKPKDTLMISRTPEVTCVVVDVSHEDPEVKFNWYVDGVEVHNAKTKPREEQYNSTYRVVSVLTVLHQDWLNGKEYKCKVSNKALPAPIEKTISKAKGQPREPQVYTLPPSREEMTKNQVSLTCLVKGFYPSDIAVEWESNGQPENNYKTTPPVLDSDGSFFLYSKLTVDKSRWQQGNVFSCSVMHEALHNHYTQKSLSLSPGGGGGSGGGGSGGGGSEVQLLESGGGLVQPGGSLRLSCAASGFTFSDFWMHWVRQAPGKGLEWISYISGDSGYTNYADSVKGRFTISRDNSKNTLYLQMNSLRAEDTAVYYCARDRPYYYYMDVWGKGTTVTVSSGGGGSGGGGSGGGGSGGGGSDIQMTQSPSSLSASVGDRVTITCRASQSVSRSLAWYQQKPGKAPKLLIYAASSLQSGVPSRFSGSGSGTDFTLTISSLQPEDFATYYCQQYKSTPVTFGQGTKVEIK
light: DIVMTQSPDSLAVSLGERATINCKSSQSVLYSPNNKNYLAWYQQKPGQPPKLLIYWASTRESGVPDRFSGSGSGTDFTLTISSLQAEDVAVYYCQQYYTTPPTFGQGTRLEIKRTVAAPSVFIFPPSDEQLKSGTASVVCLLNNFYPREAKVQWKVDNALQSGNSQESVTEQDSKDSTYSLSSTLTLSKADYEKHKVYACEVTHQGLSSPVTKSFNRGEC
Question: B6 was tested. Which Kd [4] did it give?
Answer: 395 nM

Question: What about the koff [4] of the same binder?
Answer: 0.114 s⁻¹

Question: And the kon [4]?
Answer: 288000 M⁻¹ s⁻¹

Question: What about the Kd [5] of the same binder?
Answer: 105 nM

Question: What about the koff [5] of the same binder?
Answer: 0.017 s⁻¹

Question: What about the kon [5] of the same binder?
Answer: 162000 M⁻¹ s⁻¹

Question: And the response [5]?
Answer: 0.129
